The record followed here is US20220195063A1 (BYONDIS B V, published 2022).

Usually EC50 stands for the concentration needed to bring the measured effect to its halfway point. Low values mean greater potency, high ones weaker potency. By Kd is commonly meant the free concentration of one partner at which half of the binding sites on the other are occupied at equilibrium, for simple one-to-one binding.

The chains are these.
B1: anti-SIRPα antibody 8 (antibody, human IgG1, kappa, L234A L235A, V domains shown)
VH: QSLEESGGRLVTPGTPLTLTCTASGVDLSNYAMGWVRQAPGKGLEWIGIIYAGGSTSYATWAKGRFTISKTSTTMDLKMTSPTTEDTATYFCARHRSDGYDYFHLWGPGTLVTVSL
VL: AIDMTQTPASVSEPVGGTVTIKCQASQSISSWLAWYQQKPGQRPKLLIYDASKLASGVPSRFSGSGSGTEFTLTISGVQSDDAAAYYCQQGYAVSYVENIFGGGTEVVVKR
notes: Rabbit variable regions on human IgG1 LALA / kappa
B2: anti-SIRPα antibody 11 humanized (antibody, human IgG1, kappa, L234A L235A, V domains shown)
VH: EVKVEESGGGLVQPGGSLRLSCAASGFSLSSYVMGWVRQAPGKGLEWVSIISSSGSPYYASWVNGRFTISKTSTTMDLQMNSLRAEDTAVYYCARVGPLGVDYFNIWGQGTTVTVSS
VL: DIQMTQSPSSLSASVGDRVTITCQAGQSINSYLAWYQQKPGKVPKLLIYYASTLESGVPSRFSGSGSGTDFTLTISSLQPEDVATYYCQSWHYISRSYAFGQGTKVEIKR
notes: Humanized, human IgG1 LALA / kappa
B3: anti-SIRPα antibody 10 humanized (antibody, human IgG1, kappa, L234A L235A, V domains shown)
VH: KVEESGGGLVQPGGSLRLSCAASGFSLSSYVMGWVRQAPGKGLEWVSIISSSGSPYYASWVNGRFTISKDNSEGMVYLQMNSLRAEDTAVYYCARVGPLGVDYFNIWGQGTTVTVSS
VL: DIVMTQSPDSLAVSLGERATINCQAGQSINSYLAWYQQKPGQPPKLLIYYASTLESGVPDRFSGSGSGTDFTLTISSLQAEDVAVYYCQSWHYISRSYAFGGGTKLEIKR
notes: as for B2
B4: anti-SIRPα antibody 4 (antibody, human IgG1, kappa, L234A L235A, V domains shown)
VH: QSVEESGGRLGTPGTPLTLTCTVSGFSLSSYVMGWFRQAPGKGLEYIGIISSSGSPYYASWVNGRFTISKTSTTMDLKMNSPTTEDTATYFCARVGPLGVDYFNIWGPGTLVTVSL
VL: DIVMTQTPSSVEAAVGGTVTIKCQAGQSINSYLAWYQQKPGQRPKLLIYYASTLESGVPSRFKGSGSGTDYTLTISDLESADAATYYCQSWHYISRSYAFGGGTEVVVKR
notes: Chimeric: rabbit variable regions on human IgG1 LALA / kappa; also called chimeric antibody 4
B5: anti-SIRPα antibody 12 humanized (antibody, human IgG1, kappa, L234A L235A, V domains shown)
VH: VQLVESGGRLVQPGTPLTLSCTVSGFSLSSYVMGWFRQAPGKGLEYIGIISSSGSPYYASWVNGRFTISKTSTTMDLKMNSLRSEDTATYFCARVGPLGVDYFNIWGPGTLVTVSS
VL: B4 VL
notes: as for B2

T2 sequence (P78324 other isoform, or with tags, fused parts or gaps limits assumed): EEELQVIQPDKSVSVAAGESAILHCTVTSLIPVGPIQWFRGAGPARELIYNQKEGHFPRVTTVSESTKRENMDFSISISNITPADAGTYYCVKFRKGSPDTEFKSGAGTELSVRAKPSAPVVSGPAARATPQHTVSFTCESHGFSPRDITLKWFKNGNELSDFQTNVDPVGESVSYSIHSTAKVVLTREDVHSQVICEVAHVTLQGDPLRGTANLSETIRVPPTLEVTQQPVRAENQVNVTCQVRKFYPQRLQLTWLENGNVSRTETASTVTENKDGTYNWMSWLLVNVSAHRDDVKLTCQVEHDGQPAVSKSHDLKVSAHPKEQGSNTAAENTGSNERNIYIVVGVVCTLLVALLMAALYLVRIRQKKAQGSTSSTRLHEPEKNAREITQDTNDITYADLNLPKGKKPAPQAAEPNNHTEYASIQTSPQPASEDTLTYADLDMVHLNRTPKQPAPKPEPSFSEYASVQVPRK
T4 sequence (P78324 other isoform, or with tags, fused parts or gaps limits assumed): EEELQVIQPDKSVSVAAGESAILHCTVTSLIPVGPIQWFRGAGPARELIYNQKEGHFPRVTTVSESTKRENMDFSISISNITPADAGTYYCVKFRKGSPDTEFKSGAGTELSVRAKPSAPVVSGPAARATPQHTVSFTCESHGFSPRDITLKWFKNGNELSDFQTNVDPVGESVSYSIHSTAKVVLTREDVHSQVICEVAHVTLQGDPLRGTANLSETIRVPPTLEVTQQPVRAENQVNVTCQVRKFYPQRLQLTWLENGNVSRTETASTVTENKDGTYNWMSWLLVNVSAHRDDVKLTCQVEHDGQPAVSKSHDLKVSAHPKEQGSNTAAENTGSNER
T3 sequence (Q5TFQ8 30-371 limits assumed): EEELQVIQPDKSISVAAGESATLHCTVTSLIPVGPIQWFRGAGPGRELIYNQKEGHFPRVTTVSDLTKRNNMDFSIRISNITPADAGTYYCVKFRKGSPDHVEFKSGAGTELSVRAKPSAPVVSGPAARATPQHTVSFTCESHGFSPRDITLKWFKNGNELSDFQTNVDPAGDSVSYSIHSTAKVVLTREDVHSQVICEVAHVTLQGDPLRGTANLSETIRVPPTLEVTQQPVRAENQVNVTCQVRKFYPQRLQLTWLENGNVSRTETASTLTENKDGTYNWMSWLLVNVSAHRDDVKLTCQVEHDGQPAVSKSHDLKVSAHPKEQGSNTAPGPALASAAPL
Sequence of human SIRPβ1v1 (huSIRPβ1v1) (human) (O00241 30-371): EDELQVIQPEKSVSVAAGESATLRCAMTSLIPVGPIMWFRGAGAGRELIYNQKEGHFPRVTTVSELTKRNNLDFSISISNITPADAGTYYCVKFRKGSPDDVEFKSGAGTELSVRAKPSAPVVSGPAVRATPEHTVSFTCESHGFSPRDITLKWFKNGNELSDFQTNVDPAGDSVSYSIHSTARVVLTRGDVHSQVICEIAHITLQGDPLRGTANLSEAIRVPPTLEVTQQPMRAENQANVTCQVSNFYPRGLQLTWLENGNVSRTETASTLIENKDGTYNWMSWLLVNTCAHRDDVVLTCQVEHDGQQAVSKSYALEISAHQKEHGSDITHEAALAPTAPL

For one test, the target named is T1, cynomolgus SIRPα expressed on cells (cynomolgus monkey, UniProt A0A2K5VYQ9 31-507).
T1 construct: whole, on cells; also called ExpiCHO-S (cySIRPα)
T1 sequence: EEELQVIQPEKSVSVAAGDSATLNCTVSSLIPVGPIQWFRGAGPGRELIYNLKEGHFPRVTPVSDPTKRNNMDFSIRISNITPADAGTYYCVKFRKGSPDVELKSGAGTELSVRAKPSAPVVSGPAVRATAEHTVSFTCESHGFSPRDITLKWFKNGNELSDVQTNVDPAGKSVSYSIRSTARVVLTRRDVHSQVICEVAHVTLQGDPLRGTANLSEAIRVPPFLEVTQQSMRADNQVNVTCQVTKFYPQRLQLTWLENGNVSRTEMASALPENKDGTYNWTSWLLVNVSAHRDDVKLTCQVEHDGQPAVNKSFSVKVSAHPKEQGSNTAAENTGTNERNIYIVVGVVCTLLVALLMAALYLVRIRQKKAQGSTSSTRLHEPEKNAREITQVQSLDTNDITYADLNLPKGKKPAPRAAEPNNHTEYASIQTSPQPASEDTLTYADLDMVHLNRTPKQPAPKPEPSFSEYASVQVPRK
Briefly: flow cytometry, ExpiCHO-S cells. From the text: (§1) Flow Cytometry: U937 cells endogenously expressing human SIRPαBIT antigen and cells derived from a non-engineered subclone that has been screened and isolated from CHO-S Chinese hamster ovary cells (ExpiCHO-S) cells expressing human SIRPα₁, SIRPαBIT or cySIRPα antigen (100,000 cells/well in a 96-well plate) were washed three times with ice-cold FACS buffer (1×PBS (LONZA) containing 0.2% v/w BSA (Sigma-Aldrich, St. Louis, Mo.) and 0.02% v/w NaN₃ (Sigma-Aldrich), followed by the addition of a concentration range of each primary mAb (50 μL/well) diluted in ice-cold FACS buffer. After an incubation time of 30 min at 4° C., the cells were washed three times with ice-cold FACS buffer and 50 μL/well secondary mAb (AffiniPure F(ab′)₂ fragment Goat-anti-human IgG-APC, 1:6,000 dilution, Jackson Immuno Research) was added. After 30 min at 4° C., cells were washed twice and resuspended in 150 μL FACS buffer. Fluorescence intensities were determined by flow cytometry (BD FACSVerse, Franklin Lakes, N.J.) and indicated as the median fluorescence intensity (MFI-Median) for U937 cells and ExpiCHO-S cells. Curves were fitted by nonlinear regression using the sigmoidal dose-response equation with variable slope (four parameters) in GraphPad Prism (version 7.02 for Windows, GraphPad, San Diego, Calif.). EC₅₀ values were calculated as the concentration in μg/mL that gives a response half way between bottom and top of the curve, when using a 4-parameter logistic fit.
Background: A flow cytometer gives signals particle by particle.
The molecule B1 had an EC50 of 0.15 µg/mL.
As for B2, it took 0.32 µg/mL to reach a half-maximal effect (EC50). This EC50 lies about 2.1-fold higher than the previous one.
Regarding B3, the EC50 came out at 0.27 µg/mL.
Still for that read-out and setting: next, B4: 0.18 µg/mL; B5: 0.17 µg/mL.

A further test concerns the target T2, human SIRPα1 expressed on cells (human, UniProt P78324 31-504).
T2 construct: whole, on cells; also called ExpiCHO-S (huSIRPα1); CHO cells expressing huSIRPα1
Description: flow cytometry, ExpiCHO-S cells.
Text: as §1
Turning to B1, the EC50 was found to be 0.22 µg/mL.
Same read-out and setting: in the case of B2 it was 1.05 µg/mL; in that of B3, 0.38 µg/mL.
B4 returned an EC50 of 0.41 µg/mL.
On to B5, for which the response was half-maximal at 0.1 µg/mL (EC50).

The next test concerns the target T3, human SIRPβ1v2 (huSIRPβ1v2) (human, UniProt Q5TFQ8 30-371).
T3 construct: Coated on the plate in ELISA; Only the Ensembl protein number is printed; also called huSIRPß1v2
Description: ELISA, antigen coated. Here is the method:
(§2) ELISA assay: Solutions of huSIRPα₁, huSIRPαBIT, huSIRPβ₁ᵥ₁, huSIRPβ₁ᵥ₂, huSIRPγ and cySIRPα in phosphate buffered saline (PBS) were each added to a multiple well black polystyrene plate for ELISA and allowed to adhere for 1 h at RT. Unbound protein was removed with three washing steps using standard washing buffer. Subsequently, blocking buffer was added to the wells. After 1 h incubation at RT, the wells were washed three times with standard washing buffer. The antibodies in buffer at various concentrations were added to the wells and incubated at RT for 1 h. Unbound antibodies were removed with three washing steps using standard washing buffer. Goat anti human IgG (Fab′)₂:horse radish peroxidase (HRP) in buffer was added to the wells and incubated at RT for 1 h. 3,3′,5,5′-Tetramethylbenzidine (TMB) was added and after sufficient colour development HCl was added. Absorbance was read at 450 nm/620 nm.
Background: ELISA stands for enzyme-linked immunosorbent assay.
For the molecule B1, a half-maximal response (EC50) required 0.019 µg/mL.
Same read-out and setting: next, B4: 0.092 µg/mL.

The next test concerns the target T4, human SIRPα1 (huSIRPα1), protein antigen (human, UniProt P78324 31-370, limits assumed, biotinylated in the SPR assay).
T4 construct: Coated on the plate in ELISA, biotinylated and captured in SPR; also called v2
Briefly: ELISA, antigen coated. Here is the method: as §2
For B1, the EC50 stood at 0.019 µg/mL.
Still for that read-out and setting: in the case of B4 it was 0.053 µg/mL.

The next test deals with T5, cynomolgus SIRPα (cySIRPα), protein antigen (cynomolgus monkey, UniProt A0A2K5VYQ9 31-369).
T5 construct: Coated on the plate in ELISA
T5 sequence: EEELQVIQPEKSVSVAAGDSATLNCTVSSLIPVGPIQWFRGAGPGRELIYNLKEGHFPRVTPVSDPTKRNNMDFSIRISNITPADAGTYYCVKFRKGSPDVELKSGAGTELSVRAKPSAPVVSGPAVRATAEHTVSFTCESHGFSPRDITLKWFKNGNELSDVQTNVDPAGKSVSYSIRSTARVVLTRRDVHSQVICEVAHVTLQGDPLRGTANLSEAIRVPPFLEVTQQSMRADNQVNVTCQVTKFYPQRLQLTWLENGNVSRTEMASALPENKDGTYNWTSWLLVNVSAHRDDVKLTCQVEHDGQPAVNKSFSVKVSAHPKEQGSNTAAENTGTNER
Briefly: ELISA, antigen coated. Here is the method: as §2
B1 came in with an EC50 of 0.026 µg/mL.
For the molecule B4, a half-maximal response (EC50) required 0.099 µg/mL. This EC50 is about 3.8-fold higher than that of the molecule before.

In the next test the target is T6, human SIRPγ (huSIRPγ) (human, UniProt Q9P1W8 29-360, limits assumed, biotinylated in the SPR assay).
T6 construct: Coated on the plate in ELISA, biotinylated and captured in SPR
T6 sequence (Q9P1W8 29-360 limits assumed): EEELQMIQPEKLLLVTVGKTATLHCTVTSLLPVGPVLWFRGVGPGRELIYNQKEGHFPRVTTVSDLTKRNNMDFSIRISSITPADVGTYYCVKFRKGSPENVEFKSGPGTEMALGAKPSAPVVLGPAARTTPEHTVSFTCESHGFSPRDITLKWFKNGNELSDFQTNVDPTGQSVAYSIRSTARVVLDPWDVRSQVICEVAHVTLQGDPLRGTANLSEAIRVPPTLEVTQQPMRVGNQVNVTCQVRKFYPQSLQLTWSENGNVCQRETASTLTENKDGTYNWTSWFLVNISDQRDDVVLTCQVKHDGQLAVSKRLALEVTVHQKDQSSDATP
Description: ELISA, antigen coated. Here is the method: as §2
In the case of B1, the EC50 is greater than 100 µg/mL.
Same read-out and setting: in the case of B4 it was greater than 100 µg/mL.

The target in another test is human SIRPαBIT (huSIRPαBIT), protein antigen (human) (UniProt P78324). Briefly: SPR, biotinylated antigen captured, 25 C. (In SPR one partner is held on a chip, and binding of the other changes the refractive index at the surface.)
Sequence of human SIRPαBIT (huSIRPαBIT), protein antigen (human) (P78324 31-370): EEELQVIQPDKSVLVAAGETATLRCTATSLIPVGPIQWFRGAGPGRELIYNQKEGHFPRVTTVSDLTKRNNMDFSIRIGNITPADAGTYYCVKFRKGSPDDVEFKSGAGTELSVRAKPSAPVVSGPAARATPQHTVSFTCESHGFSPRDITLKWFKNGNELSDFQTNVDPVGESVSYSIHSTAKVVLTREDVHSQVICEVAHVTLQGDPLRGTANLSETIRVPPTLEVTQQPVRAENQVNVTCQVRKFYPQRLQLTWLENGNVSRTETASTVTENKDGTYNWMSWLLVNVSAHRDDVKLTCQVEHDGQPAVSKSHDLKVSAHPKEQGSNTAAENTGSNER
Take B2: the Kd came to 0.14 nM.
Regarding B3, the Kd is less than 0.01 nM.
As for B4, the Kd was less than 0.01 nM.
Same read-out and setting: next, B5: less than 0.01 nM.

In the next test the target is human SIRPαBIT expressed on cells (human) (UniProt P78324). Briefly: flow cytometry, U937 cells.
Sequence of human SIRPαBIT expressed on cells (human) (P78324 31-504): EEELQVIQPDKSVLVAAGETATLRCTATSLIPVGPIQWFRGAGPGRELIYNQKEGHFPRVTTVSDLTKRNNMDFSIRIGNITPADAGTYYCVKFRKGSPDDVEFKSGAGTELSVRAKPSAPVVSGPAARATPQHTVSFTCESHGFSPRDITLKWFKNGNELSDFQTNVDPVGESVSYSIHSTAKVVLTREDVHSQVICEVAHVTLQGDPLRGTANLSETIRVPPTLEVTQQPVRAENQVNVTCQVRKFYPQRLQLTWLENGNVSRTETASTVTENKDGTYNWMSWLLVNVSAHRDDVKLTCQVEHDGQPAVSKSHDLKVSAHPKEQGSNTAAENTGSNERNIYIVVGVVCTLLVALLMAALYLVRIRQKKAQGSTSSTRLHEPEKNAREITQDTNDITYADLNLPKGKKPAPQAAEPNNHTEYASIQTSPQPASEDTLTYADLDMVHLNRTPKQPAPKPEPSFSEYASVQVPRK
Take B1: the EC50 was found to be 0.12 µg/mL.
Same read-out and setting: in the case of B2 it was 0.13 µg/mL; in that of B3, 0.17 µg/mL.
With B4, the EC50 was found to be 0.12 µg/mL.
Molecule B5 yielded an EC50 of 0.2 µg/mL.

A further test has the same target. Description: flow cytometry, ExpiCHO-S cells.
Turning to B1, the EC50 amounted to 0.18 µg/mL.
B2 had a half-maximal effective concentration (EC50) of 0.3 µg/mL.
The molecule B3 gave an EC50 of 0.2 µg/mL.
Consider B4, for which the EC50 worked out at 0.23 µg/mL.
Turning to B5, the concentration for a half-maximal effect (EC50) stood at 0.46 µg/mL.

The next test addresses human SIRPβ1v1 (huSIRPβ1v1) (human) (UniProt O00241). Description: ELISA, antigen coated.
For B1, the concentration giving a half-maximal response (EC50) is greater than 100 µg/mL.
Regarding B4, the EC50 was greater than 100 µg/mL.

The target in another test is human SIRPαBIT (huSIRPαBIT), protein antigen (human) (UniProt P78324). Description: ELISA, antigen coated.
Regarding B1, the EC50 came to 0.02 µg/mL.
In turn, B4 had an EC50 of 0.025 µg/mL.

For the next test, the target named is T4, human SIRPα1 (huSIRPα1), protein antigen. Description: SPR, biotinylated antigen captured, 25 C. Here is the method: (§3) Surface Plasmon Resonance (SPR) assay: Affinity analysis was performed by single cycle kinetics analysis on a Surface Plasmon Resonance apparatus (Biacore T200 system, GE Life Sciences) at 25° C. Biotinylated SIRP antigens were captured on the surface of a chip suitable for biotinylated molecules (Sensor Chip CAP, GE Life Sciences) by injecting 5 μg/ml of the SIRP antigen in running buffer (10 mM HEPES buffer at pH 7.4 with 150 mM NaCl, 3 mM EDTA and 0.005% v/v polyoxyethylene (20) sorbitan monolaurate (Surfactant P20) for 60 sec at 10 μL/min after injection of a streptavidin conjugate (20× diluted biotin CAPture reagent, GE Life Sciences) for 60 sec at 10 μl/min. Baseline stabilization was set at 1 min after which five increasing concentrations of an anti-SIRP antibody in running buffer (10 mM HEPES buffer at pH 7.4 with 150 mM NaCl, 3 mM EDTA and 0.005% v/v polyoxyethylene (20) sorbitan monolaurate) were injected. For each step an association time of 150 sec was used, followed by a dissociation time of 1200 sec at the highest concentration only, all at a flow rate of 30 μL/min. Regeneration was performed with 6 M guanidine-HCl, 0.25 M NaOH solution (60 sec with flow rate of 30 μL/min). Double blank subtraction was performed on the observed sensorgrams using a non anti-SIRP (blank) immobilized reference flow channel and running buffer injection. Sensorgrams were fitted with a 1:1 Langmuir model for all tested anti-SIRP antibodies. The kinetic parameters (kₐ, kd and KD) were calculated using the Biacore T200 evaluation software (v3.1).
B2 showed a Kd of 41 nM.
In turn, B3 showed a Kd of 3.2 nM.
B4 came in with a Kd of 0.026 nM.
B5 showed a Kd of 0.059 nM.

The target in the next test is T6, human SIRPγ (huSIRPγ). Description: SPR, biotinylated antigen captured, 25 C. On the procedure: as §3
As to B2, the binding result was “no binding”.
Turning to B3, the binding result is on record as “no binding”.
On the same count and under the same terms, next, B5: “no binding”.
